Assay results reported in patent US20180002425A1 (Scripps Research, published 2018).
Each block holds one binder with its values, some of them ahead of it.

How the values were obtained:
[1] = target: T1, extracellular domain of hEpoR-his tag (human, UniProt P19235 25-250); test: pull-down: antibody mixed with hEpoR extracellular domain-his tag, captured on His-tag Dynabeads, bound antibody detected with anti-Fc:HRP (OD405nm); control is beads without EpoR
T1 construct: extracellular domain; also called EpoR ECD-his tag monomer protein; His-tagged monomeric EpoR; not shown: His tag
T1 sequence (looked up): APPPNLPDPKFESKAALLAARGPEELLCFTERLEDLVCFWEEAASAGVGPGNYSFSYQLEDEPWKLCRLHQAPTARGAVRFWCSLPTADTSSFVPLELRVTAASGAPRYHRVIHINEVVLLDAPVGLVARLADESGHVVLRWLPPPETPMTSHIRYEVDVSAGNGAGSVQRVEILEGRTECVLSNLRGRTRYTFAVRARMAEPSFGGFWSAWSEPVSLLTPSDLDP
Protocol: The single antibodies V-1 and V-3 and the bispecific antibody V-1/V-3 (BsAb) that were generated using “Knob-into-ole” technology were purified from HEK293F cells. (A) The purified proteins were analyzed using 7% Tris-Acetate gels with TA running buffer. (B) Antibody binding to the EpoR was tested by a “pull down” experiment. Different antibodies were mixed with the extracellular domain of hEpoR-his tag. The complexes were captured with His-tag Dynabeads and bound antibodies were detected with an anti-Fc:HRP antibody.

[2] = target: T1, extracellular domain of hEpoR-his tag; test: BLI (Octet Red), scFv-Fc captured on anti-human IgG sensors, EpoR ectodomain monomer titrated, 1:1 model; V-1; not competed by EPO
Protocol: (§1) Kinetic characterization using bio-layer interferometry (BLI). Experiments were performed using the Octet Red (Fortebio Inc.). The scFv Fc fusion proteins were captured with anti-Human IgG Capture (AHC) Biosensors (kinetics grade Cat# 18-5060). A titration series of the purified EpoR ectodomain monomer protein was measured against the immobilized scFv Fc in the association/dissociation cycle. The data set was fit to a 1:1 binding model to determine ka, kd and Kd.
(§2) Thus, both EPO and the bispecific antibody achieve the obligatory asymmetric binding to the EpoR that is necessary for full agonist activity, albeit in different ways. In the case of EPO, asymmetry is achieved by the use of two distinct interfaces (site 1 and site 2) that bind with different affinities to a single site in the homodimeric EpoR (Watowich, J. Invest. Med. 59:1067, 2011). By contrast, the heterodimeric bispecific antibody achieves asymmetry by using its two different binding specifies to interact with different sites on the EpoR (FIG. 6).

[3] = target: T1, extracellular domain of hEpoR-his tag; test: BLI (Octet Red), scFv-Fc captured on anti-human IgG sensors, EpoR ectodomain monomer titrated, 1:1 model; V-3; competed by EPO
Protocol: as §1, §2

[4] = target: T2, TpoR-IL6ST chimeric receptor on HEK293T SIE-bla reporter cells (clone CR2-9) (human, UniProt P40238 26-527; P40189 651-918, limits assumed); test: cell-based or functional assay
T2 sequence (looked up): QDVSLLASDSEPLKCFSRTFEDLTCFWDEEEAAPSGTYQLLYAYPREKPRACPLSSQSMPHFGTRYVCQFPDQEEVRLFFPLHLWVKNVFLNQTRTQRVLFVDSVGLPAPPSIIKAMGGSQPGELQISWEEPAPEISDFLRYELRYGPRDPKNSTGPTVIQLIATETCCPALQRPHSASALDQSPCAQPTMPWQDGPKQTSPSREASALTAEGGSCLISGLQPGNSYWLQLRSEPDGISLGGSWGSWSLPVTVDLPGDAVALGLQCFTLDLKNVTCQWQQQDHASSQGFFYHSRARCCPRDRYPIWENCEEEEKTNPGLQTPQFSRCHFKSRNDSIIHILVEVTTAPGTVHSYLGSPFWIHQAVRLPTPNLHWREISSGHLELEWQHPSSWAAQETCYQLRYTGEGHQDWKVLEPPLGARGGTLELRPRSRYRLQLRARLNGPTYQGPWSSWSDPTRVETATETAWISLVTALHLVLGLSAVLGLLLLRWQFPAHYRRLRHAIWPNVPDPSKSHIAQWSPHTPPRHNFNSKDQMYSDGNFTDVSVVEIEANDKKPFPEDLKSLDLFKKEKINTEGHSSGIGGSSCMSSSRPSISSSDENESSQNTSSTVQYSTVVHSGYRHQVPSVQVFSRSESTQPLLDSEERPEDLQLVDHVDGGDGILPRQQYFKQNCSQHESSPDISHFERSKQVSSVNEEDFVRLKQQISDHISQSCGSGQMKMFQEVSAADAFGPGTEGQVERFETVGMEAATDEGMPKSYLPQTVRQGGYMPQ

[5] = target: T3, wild-type human TpoR on Ba/F3-hMpl cells (human, UniProt P40238 26-635); test: cell-based or functional assay
T3 sequence (looked up): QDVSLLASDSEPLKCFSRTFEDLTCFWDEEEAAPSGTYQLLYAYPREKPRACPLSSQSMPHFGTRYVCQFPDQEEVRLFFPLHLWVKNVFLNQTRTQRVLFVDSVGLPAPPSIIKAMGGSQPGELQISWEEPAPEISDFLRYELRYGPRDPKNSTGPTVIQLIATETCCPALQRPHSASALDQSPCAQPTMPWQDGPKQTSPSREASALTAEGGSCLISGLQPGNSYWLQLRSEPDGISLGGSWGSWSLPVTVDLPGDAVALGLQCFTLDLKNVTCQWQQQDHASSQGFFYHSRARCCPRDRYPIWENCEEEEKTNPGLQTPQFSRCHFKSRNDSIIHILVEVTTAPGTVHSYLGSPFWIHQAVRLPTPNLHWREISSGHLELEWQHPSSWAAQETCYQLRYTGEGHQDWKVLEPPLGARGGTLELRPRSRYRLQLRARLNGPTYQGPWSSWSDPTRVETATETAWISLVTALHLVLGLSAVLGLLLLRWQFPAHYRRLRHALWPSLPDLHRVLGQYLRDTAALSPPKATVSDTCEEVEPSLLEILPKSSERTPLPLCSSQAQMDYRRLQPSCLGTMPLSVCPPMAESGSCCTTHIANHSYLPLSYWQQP

binding result [1]: binds
B1: heterodimeric bispecific antibody V-1/V-3 (bispecific antibody, V domains shown)
VH 1: MAQVQLVQSGAEVKKPGSSVKVSCKASGGTFSSYAISWVRQAPGQGLEWMGGIIPIFGTANYAQKFQGRVTITADESTSTAYMELSSLRSEDTAVYYCARDQGYYYGSGGLDYWGQGTLVTVSS
VL 1: DIQMTQSPSSLSASVGDRVTITCRASQSISSYLNWYQQKPGKAPKLLIYAASSLQSGVPSRFSGSGSGTDFTLTISSLQPEDFATYYCLQDYNYPLTFGGGTKVEIK
VH 2: MAQVQLVQSGAEVKKPGASVKVSCKASGYTFTSYGISWVRQAPGQGLEWMGWISAYNGNTNYAQKLQGRVTMTTDTSTSTAYMELRSLRSDDTAVYYCARGVAAALSYWGQGTLVTVSS
VL 2: QSALTQPASVSGSPGQSITISCTGTSSDVGAYNYVSWYQQHPGKAPKLMIYEVTKRPSGVPDRFSGSKSGNTASLTISGLQAEDEADYYCISFTASSTWAFGGGTKLTVLG
notes: Heterodimer of two scFv-Fc chains (human IgG1 Fc, hinge to CH3) made by knobs-into-hole engineering: T366Y in the CH3 of one monomer and Y407T in the other; also called BsAb; bispecific heterodimeric antibody

Kd [2]: 26 nM
B2: EpoR antibody V-1 (scFv-Fc homodimer) (Fc fusion)
VH: MAQVQLVQSGAEVKKPGSSVKVSCKASGGTFSSYAISWVRQAPGQGLEWMGGIIPIFGTANYAQKFQGRVTITADESTSTAYMELSSLRSEDTAVYYCARDQGYYYGSGGLDYWGQGTLVTVSS
VL: DIQMTQSPSSLSASVGDRVTITCRASQSISSYLNWYQQKPGKAPKLLIYAASSLQSGVPSRFSGSGSGTDFTLTISSLQPEDFATYYCLQDYNYPLTFGGGTKVEIK

Kd [3]: 45 nM
B3: EpoR antibody V-3 (scFv-Fc homodimer) (Fc fusion)
VH: MAQVQLVQSGAEVKKPGASVKVSCKASGYTFTSYGISWVRQAPGQGLEWMGWISAYNGNTNYAQKLQGRVTMTTDTSTSTAYMELRSLRSDDTAVYYCARGVAAALSYWGQGTLVTVSS
VL: QSALTQPASVSGSPGQSITISCTGTSSDVGAYNYVSWYQQHPGKAPKLMIYEVTKRPSGVPDRFSGSKSGNTASLTISGLQAEDEADYYCISFTASSTWAFGGGTKLTVLG

EC50, short-term fluorescence (FRET beta-lactamase) reporter assay [4]: ~10 pM | EC50, long-term proliferation assay (MTS) of Ba/F3-hMPL cells [5]: 5 pM
B4: 3D9 TpoR agonist antibody (Fc fusion, not shown: a dimerising Fc or GST)
scFv: MAQVQLVQSGAEVRKVGSSVKVSCKASRDTFNTYGISWVRQAPGQGLEWMGGIIPIFGTADYAQKFRGRVTITADESTSTAYMELSSLRSEDTAVYYCARDRKLGGSDYWGQGTLVTVSSGGGGSGGGGSGGGGSDIVMTQSPSSVSASVGDKVTITCRASQGLGRWLAWYQQEPGKAPKLLIYAASTLQRGVPSRFSGSGSGTDFTLTISSLQPEDFATYYCQQSNSFPWTFGQGTKLEIKR
